Measured values from patent publication US20200199216A1 (KINDRED BIOSCIENCES, published 2020).
Where a chain is given by its changes, count along the chain named.

T1: canine IL17A (as used at 1 nM in the H1080 cell assay) (canine)
T1 chain: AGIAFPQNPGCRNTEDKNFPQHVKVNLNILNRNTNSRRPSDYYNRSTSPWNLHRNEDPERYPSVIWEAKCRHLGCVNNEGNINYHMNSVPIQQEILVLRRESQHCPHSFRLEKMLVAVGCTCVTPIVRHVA

T2: canine IL17F-polyHis (canine, biotinylated in the biosensor assay)
T2 construct: also called IL17F homodimer; not shown: poly-His tag on the C-terminal
T2 chain: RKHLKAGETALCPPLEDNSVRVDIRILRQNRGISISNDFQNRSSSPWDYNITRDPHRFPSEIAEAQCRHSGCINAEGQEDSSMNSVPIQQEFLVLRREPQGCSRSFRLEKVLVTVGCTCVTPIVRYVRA

T3: canine IL17A-polyHis (canine, biotinylated (EZ-Link NHS-LC-biotin) in the biosensor assays)
T3 construct: also called biotinylated canine IL17A-polyHis; not shown: poly-His tag on the C-terminal
T3 chain: T1 chain

T4: canine IL4 (biotinylated) (canine, UniProt O77762 25-132, biotinylated)
T4 construct: Used only to capture the IL4R/IL13R-Fc fusions on streptavidin sensor tips; also called Biotinylated canine IL4
T4 sequence (looked up): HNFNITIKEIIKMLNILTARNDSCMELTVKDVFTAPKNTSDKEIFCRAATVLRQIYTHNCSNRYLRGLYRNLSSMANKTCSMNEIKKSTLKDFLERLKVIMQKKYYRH

B1: mouse monoclonal antibody Clone A (antibody, IgG1, V domains shown)
VH: QVQLKESGPGLVAPSQSLSITCTISGFSLTSNGVHWVRQSPGKDLEWLVVIWSDGTTTYNSDFKSRLSISKDNSKSQVFLKMNSLQTDDTAMYYCARHYDWGYYYAMDYWGQGTSVTVSS
VL: DVVMTQTPLSLPVSLGDQASISCRSSQSLVHSNGNTYLHWYLQRPGQSPNLLIYKVSNRFSGVPDRFSGSGSGTDFTLKISRVEAEDLGVYFCSQSTHVPFTFGSGTKLEIK
notes: Hybridoma antibody; also called antibody A
B2: mouse monoclonal antibody Clone E (antibody, mouse IgG1, V domains shown)
VH: B1 VH with S40P, D44G, D62A, F63L, W101R
VL: B1 VL with L38F, R44K, N50K, V99A
notes: Hybridoma antibody; also called antibody E
B3: caninized Clone C antibody (caninized Clone C VH with canine IgG-B, caninized Clone C VL with canine kappa constant region) (antibody, V domains shown)
VH: EVQLVESGGGLVKPGGSLRLSCAASGFTFSSYGMSWVRQAPGKRLELVAIINSNGGSTYYPDSVKGRFTFSLDTSKNTLYLQMNSLRAEDTAMYYCVRCHYDYERVFDYWGQGTLVTVSS
VL: DIQMTQSPASVSGSLGDKVSITCKANDHINNWLAWYQQLPGNAPRLLISGSTSLESGVPDRFSGSKSGSSFTLTISGLQPEDFATYYCQQYWSTPFTFGSGTKVEIKR
notes: expressed in CHO-S cells, purified on Protein A
B4: IL4R/IL13R-canine IgG-B wild-type (Fc fusion)
chain: TETQPPVTNLSVSVENLCTVIWTWDPPEGASPNCTLRYFSHFDNKQDKKIAPETHRSKEVPLNERICLQVGSQCSTNESDNPSILVEKCTPPPEGDPESAVTELQCVWHNLSYMKCTWLPGRNTSPDTNYTLYYWHSSLGKILQCEDIYREGQHIGCSFALTNLKDSSFEQHSVQIVVKDNAGKIRPSFNIVPLTSHVKPDPPHIKRLFFQNGNLYVQWKNPQNFYSRCLSYQVEVNNSQTETNDIFYVEEAKCQNSEFEGNLEGTICFMVPGVLPDTLNTVRIRVRTNKLCYEDDKLWSNWSQAMSIGENTDPTGGGSGSGSVKVLHEPSCFSDYISTSVCQWKMDHPTNCSAELRLSYQLDFMGSENHTCVPENREDSVCVCSMPIDDAVEADVYQLDLWAGQQLLWSGSFQPSKHVKPRTPGNLTVHPNISHTWLLMWTNPYPTENHLHSELTYMVNVSNDNDPEDFKVYNVTYMGPTLRLAASTLKSGASYSARVRAWAQTYNSTWSDWSPSTTWLNYYEPKRENGRVPRPPDCPKCPAPEMLGGPSVFIFPPKPKDTLLIARTPEVTCVVVDLDPEDPEVQISWFVDGKQMQTAKTQPREEQFNGTYRVVSVLPIGHQDWLKGKQFTCKVNNKALPSPIERTISKARGQAHQPSVYVLPPSREELSKNTVSLTCLIKDFFPPDIDVEWQSNGQQEPESKYRTTPPQLDEDGSYFLYSKLSVDKSRWQRGDTFICAVMHEALHNHYTQESLSHSPGK
B5: IL4R/IL13R-canine IgG-B variant 1 (C1q binding mutant) (Fc fusion)
chain: B4 chain with K634R

Experiments:
[1] = biological target: T1, canine IL17A (as used at 1 nM in the …); assay: cell-based or functional assay
[2] = biological target: T2, canine IL17F-polyHis; assay: Western blot: SDS-PAGE, PVDF, goat anti-mouse IgG-HRP
Description: Canine IL17A-hFc, feline IL17A-polyHis, equine IL17A-polyHis, and canine IL17F-polyHis (0.6 μg) were each separated by SDS-PAGE and the proteins transferred to PVDF membranes. The blots were probed using Clone A, C, D, or E antibody followed by goat anti-mouse IgG-HRP. In this Western analysis, Clone A, C, and E antibodies immunoreacted to canine and equine IL17A, but not to feline IL17A or canine IL17F. Clone D antibody immunoreacted to canine, feline, and equine IL17A, but not to canine IL17F.

[3] = biological target: T1, canine IL17A (as used at 1 nM in the …); assay: cell-based or functional assay
[4] = biological target: T3, canine IL17A-polyHis; assay: BLI (Octet); biotinylated canine IL17A-polyHis on streptavidin sensors, antibody 0-220 nM, 1:1 model
Description: The binding analysis was performed using a Biosensor Octet as follows. Briefly, canine IL17A-polyHis, which was expressed and purified from CHO-S cells, was biotinylated using EZ-Link NHS-LC-biotin (Catalog No. 21336, Thermo Scientific). Free, unreacted biotin was removed from biotinylated IL17A by dialysis. Biotinylated canine IL17A was captured on streptavidin sensor tips (Catalog No. 18-509, ForteBio). The association of different concentrations (0 nM, 18.33 nM, 45.87 nM, 110 nM, 220 nM) of hybridoma Clone C or caninized Clone C antibody to canine IL17A was monitored for 90 seconds. Dissociation was monitored for 600 seconds. A buffer only blank curve was subtracted to correct for any drift. The data were fit to a 1:1 binding model using ForteBio™ data analysis software to determine the kₒₙ, koff, and the Kd. The buffer for dilutions and all binding steps was: 20 mM phosphate, 150 mM NaCl, pH 7.2.

[5] = biological target: T2, canine IL17F-polyHis; assay: BLI (Octet); biotinylated canine IL17F-polyHis on streptavidin sensors, antibody 0-124 nM, 1:1 model
Description: The binding analysis was performed using a biosensor Octet as follows. Briefly, canine IL17F-polyHis was biotinylated using EZ-Link NHS-LC-biotin (Catalog No. 21336, Thermo Scientific). Free, unreacted biotin was removed from biotinylated IL17F-polyHis by dialysis. Biotinylated canine IL17F was captured on streptavidin sensor tips (Catalog No. 18-509, ForteBio). The association of different concentrations (0 nM, 2 nM, 10.1 nM, 21.3 nM, 43.3 nM, 86.7 nM, 124 nM) of the caninized Clone C antibody and canine IL17F-polyHis was monitored for ninety seconds. Dissociation was monitored for 600 seconds. A buffer only blank curve was subtracted to correct for any drift. The data were fit to a 1:1 binding model using ForteBio™ data analysis software to determine the kₒₙ, koff, and the Kd. The buffer for dilutions and all binding steps was: 20 mM phosphate, 150 mM NaCl, pH 7.2.

[6] = biological target: T4, canine IL4 (biotinylated); assay: BLI capture step; biotinylated canine IL4 on streptavidin sensor tips, fusion at 25 µg/mL
Description: (§1) The determine the binding affinity of C1q to canine IgG-B Fc variant 1, a biosensor binding analysis was performed. In this assay, the affinity of C1q to a fusion protein of a canine IL4 receptor ECD and IL13 receptor ECD (IL4R/IL13R) and canine IgG-B Fc wild-type (IL4R/IL13R-canine IgG-B, SEQ ID NO: 95) or to canine IgG-B Fc variant 1 (IL4R/IL13R-canine IgG-B variant 1, SEQ ID NO: 96) was tested. Briefly, canine IL4 was biotinylated. Biotinylated canine IL4 was captured on streptavidin sensor tips. Either IL4R/IL13R-canine IgG-B wild-type (25 ug/mL) or IL4R/IL13R-canine IgG-B variant 1 (25 μg/mL) were complexed to the IL4-bound biosensors. Subsequently, the complex was used to bind human C1q at 250 μg/mL (Catalog No. 204876-1MG; Sigma Aldrich). Then, the ability of human C1q to bind to either complex was measured. Reduced binding between human C1q and IL4R/IL13R-canine IgG-B variant 1 was observed when compared to IL4R/IL13R-canine IgG-B wild-type.

[7] = biological target: T5, human C1q (Catalog No. 204876-1MG; Sigma Aldrich) (human, UniProt P02745 23-245; P02746 28-253; P02747 29-245); assay: BLI; Fc fusion (25 µg/mL) captured on IL4-bound streptavidin sensors, human C1q at 250 µg/mL
T5 construct: Bought protein
T5 sequence (P02745 23-245 limits assumed, chain 1 of 3): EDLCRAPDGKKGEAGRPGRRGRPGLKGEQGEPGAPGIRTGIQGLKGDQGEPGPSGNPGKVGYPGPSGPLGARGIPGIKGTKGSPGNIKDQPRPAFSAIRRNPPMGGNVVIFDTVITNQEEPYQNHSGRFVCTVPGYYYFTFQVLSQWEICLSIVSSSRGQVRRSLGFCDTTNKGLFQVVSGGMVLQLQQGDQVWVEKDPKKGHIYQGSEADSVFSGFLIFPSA
T5 sequence (P02746 28-253 limits assumed, chain 2 of 3): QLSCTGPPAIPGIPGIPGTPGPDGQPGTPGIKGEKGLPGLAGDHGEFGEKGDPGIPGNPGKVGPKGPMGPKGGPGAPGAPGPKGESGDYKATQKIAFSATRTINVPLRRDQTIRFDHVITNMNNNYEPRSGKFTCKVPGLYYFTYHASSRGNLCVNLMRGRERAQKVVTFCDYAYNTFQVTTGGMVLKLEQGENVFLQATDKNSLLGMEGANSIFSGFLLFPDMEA
T5 sequence (P02747 29-245 limits assumed, chain 3 of 3): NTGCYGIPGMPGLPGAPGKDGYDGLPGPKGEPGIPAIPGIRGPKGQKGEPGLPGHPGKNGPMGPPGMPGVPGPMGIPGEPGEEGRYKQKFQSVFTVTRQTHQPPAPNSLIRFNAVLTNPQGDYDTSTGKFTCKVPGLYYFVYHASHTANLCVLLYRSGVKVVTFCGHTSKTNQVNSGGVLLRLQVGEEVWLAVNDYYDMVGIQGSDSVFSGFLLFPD
Description: as §1

Row | Binder | EC50 (ng/mL), H1080 Cell Functional Assay (IL6 secretion) [1] [ng/mL] | binding result [2] | binding result [6] | binding result [7] | other results
1 | B1 | 13 | no binding (tested: 0.6 µg of target per lane) |  |  | 
2 | B2 | 40 | no binding (tested: 0.6 µg of target per lane) |  |  | 
3 | B3 |  |  |  |  | IC50, H1080 cell-based canine IL17A neutralization assay (IL6 secretion) [3]: 0.41 nM; Kd [4]: 1.4 nM; Kd [5]: 4.1 nM
4 | B4 |  |  | binds | binds | 
5 | B5 |  |  | binds | binds | 
